The results in this text go back to publication PMC10073072.

As a reminder, the Kd is the equilibrium constant for the complex coming apart.

Test [1] addresses METTL9^M6 R214A (human) (UniProt Q9H1A3). Kind of test: ITC; METTL9 protein and synthetic peptide; conditions and who was titrated not shown.
Test [2] addresses T1, SLC39A5^369–380 peptide, Q6ZMH5.
T1 chain: GHQGHSHGHQGGY
Kind of test: ITC. The note with it: chain shown with the change;; parent: 9.0 µM.

In test [1], GHQGHSHGHQGGY [SLC39A5^369–380 peptide] gave a fold weaker binding affinity than METTL9^M6 of 5 fold.

B1: METTL9^M6 (METTL9^46–318 with six mutations), Q9H1A3 R214A (protein)
chain: HMAAGGRKENHQWYVCNREKLCESLQAVFVQSYLDQGTQIFLNNSIEKSGWAAIQAYHSAVSSAFSLAMSRTSINGLLGRGSMFVFSPDQFQRLLKINPDWKTHRLLDLGAGDGEVTKIMSPHFEEIYATELSETMIWQLQKKKYRVLGINEWQNTGFQYDVISCLNLLDACDQPLTLLKDIRSVLEPTRGRVILALVLPFHPYVENVGGKWEKPSEILEIKGQNWEEQVNSLPEVFRKAGFVIEAFTRLPYLCEGDMYNDYYVLDDAVFVLKPV
Turning to B1, in test [2], the equilibrium dissociation constant (Kd) was found to be 51 µM.
